Bridges are numbered along the chain shown (N, C = ends). [ ]: non-standard residue; d: D form. Phe(4-CF3) = N[C@@H](Cc1ccc(C(F)(F)F)cc1)C(=O)O; hSer = N[C@@H](CCO)C(=O)O; Dab = NCC[C@H](N)C(=O)O; Dap = NC[C@H](N)C(=O)O
T1: Formyl-Peptide Receptor 1 (UniProt P21462 1-350, limits assumed)
T1 sequence (looked up): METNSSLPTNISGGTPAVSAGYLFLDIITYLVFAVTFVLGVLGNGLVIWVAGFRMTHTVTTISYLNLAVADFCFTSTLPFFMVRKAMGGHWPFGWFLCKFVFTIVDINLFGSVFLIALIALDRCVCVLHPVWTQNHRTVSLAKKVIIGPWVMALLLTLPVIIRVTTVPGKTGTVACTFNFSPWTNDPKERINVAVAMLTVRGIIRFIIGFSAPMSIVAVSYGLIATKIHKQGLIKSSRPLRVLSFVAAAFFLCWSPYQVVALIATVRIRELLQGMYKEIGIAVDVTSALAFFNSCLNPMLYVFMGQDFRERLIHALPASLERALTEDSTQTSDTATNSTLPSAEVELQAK

B1: cyclo(-His-His-Lys-Cys-His-Gly-^DPro-Trp-Thr-Ile-Cys-Tyr-Glu-Lys-^DPro-Pro-) (peptide)
peptide: cyclo(HHKCHG[dP]WTICYEK[dP]P)
modifications: disulfide 4-11
SMILES: CC[C@H](C)[C@@H]1NC(=O)[C@H]([C@@H](C)O)NC(=O)[C@H](Cc2c[nH]c3ccccc23)NC(=O)[C@H]2CCCN2C(=O)CNC(=O)[C@H](Cc2c[nH]cn2)NC(=O)[C@@H]2CSSC[C@H](NC1=O)C(=O)N[C@@H](Cc1ccc(O)cc1)C(=O)N[C@@H](CCC(=O)O)C(=O)N[C@@H](CCCCN)C(=O)N1CCC[C@@H]1C(=O)N1CCC[C@H]1C(=O)N[C@@H](Cc1c[nH]cn1)C(=O)N[C@@H](Cc1c[nH]cn1)C(=O)N[C@@H](CCCCN)C(=O)N2
B2: cyclo(-Tyr-His-Lys-Cys-His-Gly-^DPro-Phe(4CF3)-Thr-Ile-Cys-Tyr-Glu-Lys-^DPro-Pro-) (peptide)
peptide: cyclo(YHKCHG[dP][Phe(4-CF3)]TICYEK[dP]P)
modifications: disulfide 4-11
SMILES: CC[C@H](C)[C@@H]1NC(=O)[C@H]([C@@H](C)O)NC(=O)[C@H](Cc2ccc(C(F)(F)F)cc2)NC(=O)[C@H]2CCCN2C(=O)CNC(=O)[C@H](Cc2c[nH]cn2)NC(=O)[C@@H]2CSSC[C@H](NC1=O)C(=O)N[C@@H](Cc1ccc(O)cc1)C(=O)N[C@@H](CCC(=O)O)C(=O)N[C@@H](CCCCN)C(=O)N1CCC[C@@H]1C(=O)N1CCC[C@H]1C(=O)N[C@@H](Cc1ccc(O)cc1)C(=O)N[C@@H](Cc1c[nH]cn1)C(=O)N[C@@H](CCCCN)C(=O)N2
B3: cyclo(-Tyr-His-Ala-Cys-Trp-Gly-^DPro-Trp-Thr-Ile-Cys-Tyr-Gln-Lys-^DPro-Glu-) (peptide)
peptide: cyclo(YHACWG[dP]WTICYQK[dP]E)
modifications: disulfide 4-11
SMILES: CC[C@H](C)[C@@H]1NC(=O)[C@H]([C@@H](C)O)NC(=O)[C@H](Cc2c[nH]c3ccccc23)NC(=O)[C@H]2CCCN2C(=O)CNC(=O)[C@H](Cc2c[nH]c3ccccc23)NC(=O)[C@@H]2CSSC[C@H](NC1=O)C(=O)N[C@@H](Cc1ccc(O)cc1)C(=O)N[C@@H](CCC(N)=O)C(=O)N[C@@H](CCCCN)C(=O)N1CCC[C@@H]1C(=O)N[C@@H](CCC(=O)O)C(=O)N[C@@H](Cc1ccc(O)cc1)C(=O)N[C@@H](Cc1c[nH]cn1)C(=O)N[C@@H](C)C(=O)N2
B4: cyclo(-Dab-His-Lys-Cys-Trp-Gly-^DPro-Trp-Thr-Ile-Cys-Tyr-Glu-Lys-^DPro-Pro-) (peptide)
peptide: cyclo([Dab]HKCWG[dP]WTICYEK[dP]P)
modifications: disulfide 4-11
SMILES: CC[C@H](C)[C@@H]1NC(=O)[C@H]([C@@H](C)O)NC(=O)[C@H](Cc2c[nH]c3ccccc23)NC(=O)[C@H]2CCCN2C(=O)CNC(=O)[C@H](Cc2c[nH]c3ccccc23)NC(=O)[C@@H]2CSSC[C@H](NC1=O)C(=O)N[C@@H](Cc1ccc(O)cc1)C(=O)N[C@@H](CCC(=O)O)C(=O)N[C@@H](CCCCN)C(=O)N1CCC[C@@H]1C(=O)N1CCC[C@H]1C(=O)N[C@@H](CCN)C(=O)N[C@@H](Cc1c[nH]cn1)C(=O)N[C@@H](CCCCN)C(=O)N2
B5: cyclo(-Asp-His-Lys-Cys-His-Gly-^DPro-Trp-Thr-Ile-Cys-Tyr-Glu-Lys-^DPro-Pro-) (peptide)
peptide: cyclo(DHKCHG[dP]WTICYEK[dP]P)
modifications: disulfide 4-11
SMILES: CC[C@H](C)[C@@H]1NC(=O)[C@H]([C@@H](C)O)NC(=O)[C@H](Cc2c[nH]c3ccccc23)NC(=O)[C@H]2CCCN2C(=O)CNC(=O)[C@H](Cc2c[nH]cn2)NC(=O)[C@@H]2CSSC[C@H](NC1=O)C(=O)N[C@@H](Cc1ccc(O)cc1)C(=O)N[C@@H](CCC(=O)O)C(=O)N[C@@H](CCCCN)C(=O)N1CCC[C@@H]1C(=O)N1CCC[C@H]1C(=O)N[C@@H](CC(=O)O)C(=O)N[C@@H](Cc1c[nH]cn1)C(=O)N[C@@H](CCCCN)C(=O)N2
B6: cyclo(-Tyr-His-Lys-Cys-Trp-Gly-^DPro-Trp-Thr-Ile-Cys-Tyr-Dab-Lys-^DPro-Pro-) (peptide)
peptide: cyclo(YHKCWG[dP]WTICY[Dab]K[dP]P)
modifications: disulfide 4-11
SMILES: CC[C@H](C)[C@@H]1NC(=O)[C@H]([C@@H](C)O)NC(=O)[C@H](Cc2c[nH]c3ccccc23)NC(=O)[C@H]2CCCN2C(=O)CNC(=O)[C@H](Cc2c[nH]c3ccccc23)NC(=O)[C@@H]2CSSC[C@H](NC1=O)C(=O)N[C@@H](Cc1ccc(O)cc1)C(=O)N[C@@H](CCN)C(=O)N[C@@H](CCCCN)C(=O)N1CCC[C@@H]1C(=O)N1CCC[C@H]1C(=O)N[C@@H](Cc1ccc(O)cc1)C(=O)N[C@@H](Cc1c[nH]cn1)C(=O)N[C@@H](CCCCN)C(=O)N2
B7: cyclo(-Dab-His-Lys-Cys-His-Gly-^DPro-Trp-Thr-Ile-Cys-Tyr-Glu-Lys-^DPro-Pro-) (peptide)
peptide: cyclo([Dab]HKCHG[dP]WTICYEK[dP]P)
modifications: disulfide 4-11
SMILES: CC[C@H](C)[C@@H]1NC(=O)[C@H]([C@@H](C)O)NC(=O)[C@H](Cc2c[nH]c3ccccc23)NC(=O)[C@H]2CCCN2C(=O)CNC(=O)[C@H](Cc2c[nH]cn2)NC(=O)[C@@H]2CSSC[C@H](NC1=O)C(=O)N[C@@H](Cc1ccc(O)cc1)C(=O)N[C@@H](CCC(=O)O)C(=O)N[C@@H](CCCCN)C(=O)N1CCC[C@@H]1C(=O)N1CCC[C@H]1C(=O)N[C@@H](CCN)C(=O)N[C@@H](Cc1c[nH]cn1)C(=O)N[C@@H](CCCCN)C(=O)N2
B8: cyclo(-Tyr-His-Lys-Cys-His-Gly-^DPro-Trp-Thr-Leu-Cys-Tyr-Glu-Lys-^DPro-Pro-) (peptide)
peptide: cyclo(YHKCHG[dP]WTLCYEK[dP]P)
modifications: disulfide 4-11
SMILES: CC(C)C[C@@H]1NC(=O)[C@H]([C@@H](C)O)NC(=O)[C@H](Cc2c[nH]c3ccccc23)NC(=O)[C@H]2CCCN2C(=O)CNC(=O)[C@H](Cc2c[nH]cn2)NC(=O)[C@@H]2CSSC[C@H](NC1=O)C(=O)N[C@@H](Cc1ccc(O)cc1)C(=O)N[C@@H](CCC(=O)O)C(=O)N[C@@H](CCCCN)C(=O)N1CCC[C@@H]1C(=O)N1CCC[C@H]1C(=O)N[C@@H](Cc1ccc(O)cc1)C(=O)N[C@@H](Cc1c[nH]cn1)C(=O)N[C@@H](CCCCN)C(=O)N2
B9: cyclo(-Tyr-His-Lys-Cys-Trp-Gly-^DAla-Trp-Thr-Ile-Cys-Tyr-Glu-Lys-^DPro-Pro-) (peptide)
peptide: cyclo(YHKCWG[dA]WTICYEK[dP]P)
modifications: disulfide 4-11
SMILES: CC[C@H](C)[C@@H]1NC(=O)[C@H]([C@@H](C)O)NC(=O)[C@H](Cc2c[nH]c3ccccc23)NC(=O)[C@@H](C)NC(=O)CNC(=O)[C@H](Cc2c[nH]c3ccccc23)NC(=O)[C@@H]2CSSC[C@H](NC1=O)C(=O)N[C@@H](Cc1ccc(O)cc1)C(=O)N[C@@H](CCC(=O)O)C(=O)N[C@@H](CCCCN)C(=O)N1CCC[C@@H]1C(=O)N1CCC[C@H]1C(=O)N[C@@H](Cc1ccc(O)cc1)C(=O)N[C@@H](Cc1c[nH]cn1)C(=O)N[C@@H](CCCCN)C(=O)N2
B10: cyclo(-Tyr-His-Lys-Cys-His-Gly-^DAla-Trp-Thr-Ile-Cys-Tyr-Glu-Lys-^DPro-Pro-) (peptide)
peptide: cyclo(YHKCHG[dA]WTICYEK[dP]P)
modifications: disulfide 4-11
SMILES: CC[C@H](C)[C@@H]1NC(=O)[C@H]([C@@H](C)O)NC(=O)[C@H](Cc2c[nH]c3ccccc23)NC(=O)[C@@H](C)NC(=O)CNC(=O)[C@H](Cc2c[nH]cn2)NC(=O)[C@@H]2CSSC[C@H](NC1=O)C(=O)N[C@@H](Cc1ccc(O)cc1)C(=O)N[C@@H](CCC(=O)O)C(=O)N[C@@H](CCCCN)C(=O)N1CCC[C@@H]1C(=O)N1CCC[C@H]1C(=O)N[C@@H](Cc1ccc(O)cc1)C(=O)N[C@@H](Cc1c[nH]cn1)C(=O)N[C@@H](CCCCN)C(=O)N2
B11: cyclo(-Tyr-His-Lys-Cys-His-Gly-^DPro-Trp-Thr-Val-Cys-Tyr-Glu-Lys-^DPro-Pro-) (peptide)
peptide: cyclo(YHKCHG[dP]WTVCYEK[dP]P)
modifications: disulfide 4-11
SMILES: CC(C)[C@@H]1NC(=O)[C@H]([C@@H](C)O)NC(=O)[C@H](Cc2c[nH]c3ccccc23)NC(=O)[C@H]2CCCN2C(=O)CNC(=O)[C@H](Cc2c[nH]cn2)NC(=O)[C@@H]2CSSC[C@H](NC1=O)C(=O)N[C@@H](Cc1ccc(O)cc1)C(=O)N[C@@H](CCC(=O)O)C(=O)N[C@@H](CCCCN)C(=O)N1CCC[C@@H]1C(=O)N1CCC[C@H]1C(=O)N[C@@H](Cc1ccc(O)cc1)C(=O)N[C@@H](Cc1c[nH]cn1)C(=O)N[C@@H](CCCCN)C(=O)N2
B12: cyclo(-Tyr-His-Ile-Cys-His-Gly-^DPro-Trp-Thr-Ile-Cys-Tyr-Glu-Lys-^DPro-Pro-) (peptide)
peptide: cyclo(YHICHG[dP]WTICYEK[dP]P)
modifications: disulfide 4-11
SMILES: CC[C@H](C)[C@@H]1NC(=O)[C@H](Cc2c[nH]cn2)NC(=O)[C@H](Cc2ccc(O)cc2)NC(=O)[C@@H]2CCCN2C(=O)[C@H]2CCCN2C(=O)[C@H](CCCCN)NC(=O)[C@H](CCC(=O)O)NC(=O)[C@H](Cc2ccc(O)cc2)NC(=O)[C@@H]2CSSC[C@H](NC1=O)C(=O)N[C@@H](Cc1c[nH]cn1)C(=O)NCC(=O)N1CCC[C@@H]1C(=O)N[C@@H](Cc1c[nH]c3ccccc13)C(=O)N[C@@H]([C@@H](C)O)C(=O)N[C@@H]([C@@H](C)CC)C(=O)N2
B13: cyclo(-Tyr-His-Lys-Cys-His-Gly-^DPro-Trp-Thr-Ile-Cys-Tyr-Hse-Lys-^DPro-Pro-) (peptide)
peptide: cyclo(YHKCHG[dP]WTICY[hSer]K[dP]P)
modifications: disulfide 4-11
SMILES: CC[C@H](C)[C@@H]1NC(=O)[C@H]([C@@H](C)O)NC(=O)[C@H](Cc2c[nH]c3ccccc23)NC(=O)[C@H]2CCCN2C(=O)CNC(=O)[C@H](Cc2c[nH]cn2)NC(=O)[C@@H]2CSSC[C@H](NC1=O)C(=O)N[C@@H](Cc1ccc(O)cc1)C(=O)N[C@@H](CCO)C(=O)N[C@@H](CCCCN)C(=O)N1CCC[C@@H]1C(=O)N1CCC[C@H]1C(=O)N[C@@H](Cc1ccc(O)cc1)C(=O)N[C@@H](Cc1c[nH]cn1)C(=O)N[C@@H](CCCCN)C(=O)N2

Target: T1, Formyl-Peptide Receptor 1
Test: cell-based or functional assay

Row | Binder | β-Arrestin IC50
1 | B1 | 0.239 µM
2 | B2 | 0.114 µM
3 | B3 | 0.06 µM
4 | cyclo(YH[Dab]CWG[dP]WTICYEK[dP]P) (disulfide 4-11) [cyclo(-Tyr-His-Dab-Cys-Trp-Gly-^DPro-Trp-Thr-Ile-Cys-Tyr-Glu-Lys-^DPro-Pro-)] | 0.093 µM
5 | B4 | 0.248 µM
6 | B5 | 0.177 µM
7 | B6 | 0.633 µM
8 | B7 | 0.194 µM
9 | B8 | 0.153 µM
10 | B9 | 0.069 µM
11 | B10 | 0.077 µM
12 | B11 | 0.232 µM
13 | cyclo(YH[Dap]CHG[dP]WTICYEK[dP]P) (disulfide 4-11) [cyclo(-Tyr-His-Dap-Cys-His-Gly-^DPro-Trp-Thr-Ile-Cys-Tyr-Glu-Lys-^DPro-Pro-)] | 0.271 µM
14 | B12 | 0.05 µM
15 | B13 | 0.138 µM

— US9957297B2, “Template-fixed peptidomimetics as inhibitors of FPR1” (POLYPHOR AG, priority 2011, dated 2018)
